Results published in the supplement of paper PMC9112550, “Optimization of the antimicrobial peptide Bac7 by deep mutational scanning” (BMC Biology, 2022).

Test system: Escherichia coli TOP10
Experiment: shrunken log2 fold change of peptide-encoding DNA abundance (4.5 h post-induction vs induction); higher = less antimicrobial activity (less host growth inhibition)
Settings: time post-induction: 4.5 h; library: site-saturation at positions 5, 18, 19, 20
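Note: peptides expressed intracellularly from a pBAD plasmid library in pooled LB shake-flask culture, induced with 0.3% L-arabinose, DNA abundance read by NGS, three biological replicates, DESeq2 with apeglm shrinkage.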

Sequence | shrunken log2 fold change
RRIRPRPPRLPRPRPRPCLVPRP | -0.179
RRIRPRPPRLPRPRPRPCMAPRP | -0.151
RRIRPRPPRLPRPRPRPCMNPRP | -0.184
RRIRPRPPRLPRPRPRPCMTPRP | -0.106
RRIRPRPPRLPRPRPRPCNWPRP | -0.0706
RRIRPRPPRLPRPRPRPCPRPRP | 0.0438
RRIRPRPPRLPRPRPRPCPWPRP | 0.889
RRIRPRPPRLPRPRPRPCRDPRP | 1.11
RRIRPRPPRLPRPRPRPCRQPRP | 0.111
RRIRPRPPRLPRPRPRPCSPPRP | 0.0563
RRIRPRPPRLPRPRPRPCTLPRP | -0.029
RRIRPRPPRLPRPRPRPCTWPRP | 0.025
RRIRPRPPRLPRPRPRPCVFPRP | -0.164
RRIRPRPPRLPRPRPRPDAYPRP | -0.334
RRIRPRPPRLPRPRPRPDFTPRP | -0.411
RRIRPRPPRLPRPRPRPDHEPRP | 0.0217
RRIRPRPPRLPRPRPRPDHLPRP | -0.172
RRIRPRPPRLPRPRPRPDISPRP | 0.0683
RRIRPRPPRLPRPRPRPDKEPRP | -0.0375
RRIRPRPPRLPRPRPRPDLMPRP | 0.303
RRIRPRPPRLPRPRPRPDLTPRP | 0.168
RRIRPRPPRLPRPRPRPDNRPRP | 0.0191
RRIRPRPPRLPRPRPRPDPSPRP | 0.265
RRIRPRPPRLPRPRPRPDQWPRP | -0.0215
RRIRPRPPRLPRPRPRPDRGPRP | 0.0265

Sequence | shrunken log2 fold change
RRIRPRPPRLPRPRPRPDRYPRP | -0.0207
RRIRPRPPRLPRPRPRPDSKPRP | -0.238
RRIRPRPPRLPRPRPRPDSVPRP | 0.195
RRIRPRPPRLPRPRPRPDTRPRP | 0.0199
RRIRPRPPRLPRPRPRPDTYPRP | -0.623
RRIRPRPPRLPRPRPRPDVGPRP | 0.181
RRIRPRPPRLPRPRPRPDVKPRP | -0.137
RRIRPRPPRLPRPRPRPDVTPRP | -0.399
RRIRPRPPRLPRPRPRPDWDPRP | 0.00947
RRIRPRPPRLPRPRPRPDYDPRP | -0.252
RRIRPRPPRLPRPRPRPDYEPRP | -0.136
RRIRPRPPRLPRPRPRPEAAPRP | 1.13
RRIRPRPPRLPRPRPRPEARPRP | 0.374
RRIRPRPPRLPRPRPRPEATPRP | 0.33
RRIRPRPPRLPRPRPRPEAVPRP | 0.216
RRIRPRPPRLPRPRPRPEAYPRP | 0.00183
RRIRPRPPRLPRPRPRPECEPRP | 0.291
RRIRPRPPRLPRPRPRPECLPRP | 0.0299
RRIRPRPPRLPRPRPRPECMPRP | 0.212
RRIRPRPPRLPRPRPRPECWPRP | 0.903
RRIRPRPPRLPRPRPRPECYPRP | 0.044
RRIRPRPPRLPRPRPRPEDAPRP | 0.0442
RRIRPRPPRLPRPRPRPEDYPRP | -0.0172
RRIRPRPPRLPRPRPRPEECPRP | -0.105
RRIRPRPPRLPRPRPRPEELPRP | 0.0725

Sequence | shrunken log2 fold change
RRIRPRPPRLPRPRPRPEFLPRP | -0.101
RRIRPRPPRLPRPRPRPEFRPRP | -0.00133
RRIRPRPPRLPRPRPRPEGGPRP | 0.329
RRIRPRPPRLPRPRPRPEHFPRP | 0.134
RRIRPRPPRLPRPRPRPEIGPRP | 0.0772
RRIRPRPPRLPRPRPRPELMPRP | -0.109
RRIRPRPPRLPRPRPRPEMQPRP | 1.05
RRIRPRPPRLPRPRPRPENVPRP | -0.2
RRIRPRPPRLPRPRPRPEPPPRP | 0.474
RRIRPRPPRLPRPRPRPEPWPRP | 0.232
RRIRPRPPRLPRPRPRPEQCPRP | -0.0149
RRIRPRPPRLPRPRPRPEQLPRP | 0.0838
RRIRPRPPRLPRPRPRPEQYPRP | -0.226
RRIRPRPPRLPRPRPRPERTPRP | 0.291
RRIRPRPPRLPRPRPRPERYPRP | 0.378
RRIRPRPPRLPRPRPRPESEPRP | -0.0127
RRIRPRPPRLPRPRPRPETDPRP | 0.229
RRIRPRPPRLPRPRPRPEVFPRP | 0.0976
RRIRPRPPRLPRPRPRPEWGPRP | 0.42
RRIRPRPPRLPRPRPRPEYCPRP | -0.146
RRIRPRPPRLPRPRPRPFARPRP | 0.206
RRIRPRPPRLPRPRPRPFASPRP | 0.132
RRIRPRPPRLPRPRPRPFCKPRP | -0.511
RRIRPRPPRLPRPRPRPFDKPRP | -0.0386
RRIRPRPPRLPRPRPRPFDMPRP | 0.08

Sequence | shrunken log2 fold change
RRIRPRPPRLPRPRPRPFDWPRP | 0.171
RRIRPRPPRLPRPRPRPFFSPRP | -0.0993
RRIRPRPPRLPRPRPRPFGDPRP | -0.0184
RRIRPRPPRLPRPRPRPFGMPRP | -0.749
RRIRPRPPRLPRPRPRPFHNPRP | -0.541
RRIRPRPPRLPRPRPRPFHYPRP | -1.27
RRIRPRPPRLPRPRPRPFIFPRP | 0.29
RRIRPRPPRLPRPRPRPFIHPRP | -0.224
RRIRPRPPRLPRPRPRPFKWPRP | 0.0103
RRIRPRPPRLPRPRPRPFMNPRP | -0.198
RRIRPRPPRLPRPRPRPFMVPRP | -0.478
RRIRPRPPRLPRPRPRPFNFPRP | -0.155
RRIRPRPPRLPRPRPRPFNHPRP | -0.304
RRIRPRPPRLPRPRPRPFNVPRP | -0.0975
RRIRPRPPRLPRPRPRPFPHPRP | -0.129
RRIRPRPPRLPRPRPRPFRDPRP | -0.118
RRIRPRPPRLPRPRPRPFSHPRP | -0.402
RRIRPRPPRLPRPRPRPFTKPRP | -0.148
RRIRPRPPRLPRPRPRPFVFPRP | -0.2
RRIRPRPPRLPRPRPRPFVGPRP | -0.297
RRIRPRPPRLPRPRPRPFWGPRP | -0.0925
RRIRPRPPRLPRPRPRPFYWPRP | -0.107
RRIRPRPPRLPRPRPRPGCRPRP | 0.289
RRIRPRPPRLPRPRPRPGDCPRP | 0.482
RRIRPRPPRLPRPRPRPGEMPRP | 0.294

Sequence | shrunken log2 fold change
RRIRPRPPRLPRPRPRPGEPPRP | 0.0896
RRIRPRPPRLPRPRPRPGEWPRP | 0.214
RRIRPRPPRLPRPRPRPGGAPRP | 0.47
RRIRPRPPRLPRPRPRPGGFPRP | 0.318
RRIRPRPPRLPRPRPRPGGQPRP | -0.0466
RRIRPRPPRLPRPRPRPGKKPRP | 0.00372
RRIRPRPPRLPRPRPRPGKTPRP | 0.294
RRIRPRPPRLPRPRPRPGKVPRP | -0.0669
RRIRPRPPRLPRPRPRPGKYPRP | -0.132
RRIRPRPPRLPRPRPRPGLEPRP | 0.195
RRIRPRPPRLPRPRPRPGLMPRP | 0.184
RRIRPRPPRLPRPRPRPGLSPRP | 0.206
RRIRPRPPRLPRPRPRPGLTPRP | 0.0985
RRIRPRPPRLPRPRPRPGLWPRP | 0.341
RRIRPRPPRLPRPRPRPGMDPRP | -0.00631
RRIRPRPPRLPRPRPRPGNIPRP | -0.000778
RRIRPRPPRLPRPRPRPGNMPRP | -0.119
RRIRPRPPRLPRPRPRPGPKPRP | 0.394
RRIRPRPPRLPRPRPRPGPMPRP | 0.293
RRIRPRPPRLPRPRPRPGTMPRP | -0.133
RRIRPRPPRLPRPRPRPHAAPRP | 0.3
RRIRPRPPRLPRPRPRPHACPRP | 0.00839
RRIRPRPPRLPRPRPRPHANPRP | -0.0736
RRIRPRPPRLPRPRPRPHDVPRP | -0.242
RRIRPRPPRLPRPRPRPHDYPRP | -0.0318

Sequence | shrunken log2 fold change
RRIRPRPPRLPRPRPRPHFDPRP | -0.0993
RRIRPRPPRLPRPRPRPHFFPRP | 0.118
RRIRPRPPRLPRPRPRPHFIPRP | -0.468
RRIRPRPPRLPRPRPRPHGKPRP | 0.0675
RRIRPRPPRLPRPRPRPHGMPRP | -0.531
RRIRPRPPRLPRPRPRPHGSPRP | 0.063
RRIRPRPPRLPRPRPRPHHWPRP | -0.103
RRIRPRPPRLPRPRPRPHIRPRP | -0.0938
RRIRPRPPRLPRPRPRPHIWPRP | -0.3
RRIRPRPPRLPRPRPRPHMRPRP | 0.0614
RRIRPRPPRLPRPRPRPHPPPRP | 0.397
RRIRPRPPRLPRPRPRPHPRPRP | 0.597
RRIRPRPPRLPRPRPRPHQKPRP | -0.0717
RRIRPRPPRLPRPRPRPHQRPRP | -0.232
RRIRPRPPRLPRPRPRPHQTPRP | -0.0729
RRIRPRPPRLPRPRPRPHRAPRP | 0.402
RRIRPRPPRLPRPRPRPHSMPRP | -0.408
RRIRPRPPRLPRPRPRPHTSPRP | -0.622
RRIRPRPPRLPRPRPRPHVKPRP | -0.013
RRIRPRPPRLPRPRPRPHYCPRP | -0.997
RRIRPRPPRLPRPRPRPHYKPRP | -0.874
RRIRPRPPRLPRPRPRPIAAPRP | 0.621
RRIRPRPPRLPRPRPRPIATPRP | -0.159
RRIRPRPPRLPRPRPRPICEPRP | 0.227
RRIRPRPPRLPRPRPRPICKPRP | -0.081
